Measurements reported in US20160317656A1 (published 2016).

T1: IIIb
T1 chain: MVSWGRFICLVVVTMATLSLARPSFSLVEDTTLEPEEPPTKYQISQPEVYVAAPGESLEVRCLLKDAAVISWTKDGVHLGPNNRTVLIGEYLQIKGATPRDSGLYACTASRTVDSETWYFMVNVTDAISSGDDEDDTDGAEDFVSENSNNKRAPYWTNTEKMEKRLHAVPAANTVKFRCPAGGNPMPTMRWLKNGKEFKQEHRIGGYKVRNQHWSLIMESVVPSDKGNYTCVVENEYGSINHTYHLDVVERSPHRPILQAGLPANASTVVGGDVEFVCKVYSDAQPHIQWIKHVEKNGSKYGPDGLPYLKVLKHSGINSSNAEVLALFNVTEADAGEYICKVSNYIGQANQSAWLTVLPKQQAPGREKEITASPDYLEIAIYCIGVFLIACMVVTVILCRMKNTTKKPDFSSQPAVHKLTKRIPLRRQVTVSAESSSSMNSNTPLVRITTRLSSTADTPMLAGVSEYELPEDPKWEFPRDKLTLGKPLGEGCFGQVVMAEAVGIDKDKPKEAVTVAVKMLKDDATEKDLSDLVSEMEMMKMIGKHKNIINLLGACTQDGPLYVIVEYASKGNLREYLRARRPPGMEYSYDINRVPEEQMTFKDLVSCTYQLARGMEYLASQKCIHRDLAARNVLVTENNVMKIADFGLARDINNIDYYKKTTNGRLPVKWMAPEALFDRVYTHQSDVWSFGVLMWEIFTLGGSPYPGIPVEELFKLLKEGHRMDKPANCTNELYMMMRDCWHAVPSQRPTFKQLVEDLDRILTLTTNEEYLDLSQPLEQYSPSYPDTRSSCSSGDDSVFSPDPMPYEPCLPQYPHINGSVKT


Columns and labels:
[1] = target: T1, IIIb; assay: Biacore; rhFGFR2 alpha (IIIb) Fc chimera
[2] = target: human FGFR2 IIIc variant protein (isoform 1: NP_000132), expressed on transfected cells (UniProt P21802 22-821); assay: Biacore
[3] = target: IIIc; assay: Biacore; rhFGFR2 alpha (IIIc) Fc chimera

Chain of human FGFR2 IIIc variant protein (isoform 1: NP_000132), expressed on transfected cells (P21802 22-821, change not shown): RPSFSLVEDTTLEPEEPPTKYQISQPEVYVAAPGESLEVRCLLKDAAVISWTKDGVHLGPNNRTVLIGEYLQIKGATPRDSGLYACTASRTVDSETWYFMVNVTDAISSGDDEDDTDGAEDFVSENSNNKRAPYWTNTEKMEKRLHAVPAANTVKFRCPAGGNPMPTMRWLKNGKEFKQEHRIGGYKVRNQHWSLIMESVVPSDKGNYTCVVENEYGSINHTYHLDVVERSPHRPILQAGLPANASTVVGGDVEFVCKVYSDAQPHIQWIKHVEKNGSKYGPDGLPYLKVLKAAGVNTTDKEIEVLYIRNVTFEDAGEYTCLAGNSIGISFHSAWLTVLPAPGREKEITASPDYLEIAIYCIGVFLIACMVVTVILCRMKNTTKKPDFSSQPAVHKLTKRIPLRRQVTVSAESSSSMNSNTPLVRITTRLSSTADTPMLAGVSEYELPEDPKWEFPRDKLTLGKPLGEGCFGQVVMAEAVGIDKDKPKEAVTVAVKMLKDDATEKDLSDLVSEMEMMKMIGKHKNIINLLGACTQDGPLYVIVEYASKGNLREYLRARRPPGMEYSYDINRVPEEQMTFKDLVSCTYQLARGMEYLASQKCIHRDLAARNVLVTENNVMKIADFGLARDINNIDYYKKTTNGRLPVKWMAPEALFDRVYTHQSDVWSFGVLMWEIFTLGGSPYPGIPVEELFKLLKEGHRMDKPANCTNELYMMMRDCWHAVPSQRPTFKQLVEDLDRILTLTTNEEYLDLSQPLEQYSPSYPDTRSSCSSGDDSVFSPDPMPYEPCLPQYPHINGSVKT

Row | Kd [1] | Kd [2] | Kd [3] | Binder
1 | 63 nM |  |  | human chimeric anti-FGFR2 antibody cFR2-14 (antibody, V domains shown) VH: QVKLLQSGAELVKPGASVKLSCKTSGFTFSTSYMSWLKQVPGPSTEWIGWIYAGDGGTKYNQKFKGKATLTVDKFSSTAYMDLSSLTSEDAAVYFCATDGYGDWFTYWGQGTLVTVSS VL: DIQMTQSPASLSASLGETVTIECRASEDIYSNLAWYQQKPGNSPQLLIYDANILADGVPSRFSGSGSGTQYSLKINSLQSEDVASYFCQQYNNYPPFTFGAGTKLELKR
2 |  | 1.2 nM |  | humanized anti-FGFR2 antibody hFR2-14_H7/L1 (antibody, V domains shown) VH: QVQLVQSGAEVKKPGASVKVSCKASGFTFSTSYMSWVRQAPGPSTEWMGWIYAGDGGTKYNQKFKGRVTLTVDKSTSTAYMELSSLRSEDTAVYYCATDEYGDWFTYWGQGTLVTVSS VL: DIQMTQSPSSLSASVGDRVTITCRASEDIYSNLAWYQQKPGKSPQLLIYDANILADGVPSRFSGSGSGTDYTLTISSLQPEDFATYYCQQYNNYPPFTFGQGTKVEIKR
3 | 8.7 nM |  | 6.4 nM | humanized anti-FGFR2 antibody hFR2-14_H2/L1 (antibody, V domains shown) VH: QVQLVQSGAEVKKPGASVKVSCKASGFTFSTSYMSWVRQAPGQGLEWMGWIYAGDGGTKYNQKFKGRVTLTADKSTSTAYMELSSLRSEDTAVYYCATDGYGDWFTYWGQGTLVTVSS VL: DIQMTQSPSSLSASVGDRVTITCRASEDIYSNLAWYQQKPGKSPQLLIYDANILADGVPSRFSGSGSGTDYTLTISSLQPEDFATYYCQQYNNYPPFTFGQGTKVEIKR
4 |  | 0.67 nM |  | humanized anti-FGFR2 antibody hFR2-14_H13/L1 (antibody, V domains shown) VH: QVQLVQSGAEVKKPGASVKVSCKASGFTFSTSYMSWVRQAPGPSTEWMGWIYAGDGGTKYNQKFKGRVTLTVDKSTSTAYMELSSLRSEDTAVYYCATDMYGDWFTYWGQGTLVTVSS VL: DIQMTQSPSSLSASVGDRVTITCRASEDIYSNLAWYQQKPGKSPQLLIYDANILADGVPSRFSGSGSGTDYTLTISSLQPEDFATYYCQQYNNYPPFTFGQGTKVEIKR
5 |  | 1.5 nM |  | humanized anti-FGFR2 antibody hFR2-14_H17/L1 (antibody, V domains shown) VH: QVQLVQSGAEVKKPGASVKVSCKASGFTFSTSYMSWVRQAPGPSTEWMGWIYAGDGGTKYNQKFKGRVTLTVDKSTSTAYMELSSLRSEDTAVYYCATDWYGDWFTYWGQGTLVTVSS VL: DIQMTQSPSSLSASVGDRVTITCRASEDIYSNLAWYQQKPGKSPQLLIYDANILADGVPSRFSGSGSGTDYTLTISSLQPEDFATYYCQQYNNYPPFTFGQGTKVEIKR
6 |  | 0.91 nM |  | humanized anti-FGFR2 antibody hFR2-14_H16/L1 (antibody, V domains shown) VH: QVQLVQSGAEVKKPGASVKVSCKASGFTFSTSYMSWVRQAPGPSTEWMGWIYAGDGGTKYNQKFKGRVTLTVDKSTSTAYMELSSLRSEDTAVYYCATDVYGDWFTYWGQGTLVTVSS VL: DIQMTQSPSSLSASVGDRVTITCRASEDIYSNLAWYQQKPGKSPQLLIYDANILADGVPSRFSGSGSGTDYTLTISSLQPEDFATYYCQQYNNYPPFTFGQGTKVEIKR
7 | 12 nM |  | 3 nM | humanized anti-FGFR2 antibody hFR2-14_H1/L1 (antibody, V domains shown) VH: QVQLVQSGAEVKKPGASVKVSCKASGFTFSTSYMSWVRQAPGQGLEWMGWIYAGDGGTKYNQKFKGRVTLTVDKSTSTAYMELSSLRSEDTAVYYCATDGYGDWFTYWGQGTLVTVSS VL: DIQMTQSPSSLSASVGDRVTITCRASEDIYSNLAWYQQKPGKSPQLLIYDANILADGVPSRFSGSGSGTDYTLTISSLQPEDFATYYCQQYNNYPPFTFGQGTKVEIKR
8 |  | 1.2 nM |  | humanized anti-FGFR2 antibody hFR2-14_H18/L1 (antibody, V domains shown) VH: QVQLVQSGAEVKKPGASVKVSCKASGFTFSTSYMSWVRQAPGPSTEWMGWIYAGDGGTKYNQKFKGRVTLTVDKSTSTAYMELSSLRSEDTAVYYCATDYYGDWFTYWGQGTLVTVSS VL: DIQMTQSPSSLSASVGDRVTITCRASEDIYSNLAWYQQKPGKSPQLLIYDANILADGVPSRFSGSGSGTDYTLTISSLQPEDFATYYCQQYNNYPPFTFGQGTKVEIKR
9 |  | 2.1 nM |  | humanized anti-FGFR2 antibody hFR2-14_H11/L1 (antibody, V domains shown) VH: QVQLVQSGAEVKKPGASVKVSCKASGFTFSTSYMSWVRQAPGPSTEWMGWIYAGDGGTKYNQKFKGRVTLTVDKSTSTAYMELSSLRSEDTAVYYCATDKYGDWFTYWGQGTLVTVSS VL: DIQMTQSPSSLSASVGDRVTITCRASEDIYSNLAWYQQKPGKSPQLLIYDANILADGVPSRFSGSGSGTDYTLTISSLQPEDFATYYCQQYNNYPPFTFGQGTKVEIKR
10 |  | 0.69 nM |  | humanized anti-FGFR2 antibody hFR2-14_H10/L1 (antibody, V domains shown) VH: QVQLVQSGAEVKKPGASVKVSCKASGFTFSTSYMSWVRQAPGPSTEWMGWIYAGDGGTKYNQKFKGRVTLTVDKSTSTAYMELSSLRSEDTAVYYCATDIYGDWFTYWGQGTLVTVSS VL: DIQMTQSPSSLSASVGDRVTITCRASEDIYSNLAWYQQKPGKSPQLLIYDANILADGVPSRFSGSGSGTDYTLTISSLQPEDFATYYCQQYNNYPPFTFGQGTKVEIKR
11 | 5.4 nM |  | 2.8 nM | humanized anti-FGFR2 antibody hFR2-14_H4/L1 (antibody, V domains shown) VH: QVQLVQSGAEVKKPGASVKVSCKASGFTFSTSYMSWVRQAPGPSIEWMGWIYAGDGGTKYNQKFKGRVTLTVDKSTSTAYMELSSLRSEDTAVYYCATDGYGDWFAYWGQGTLVTVSS VL: DIQMTQSPSSLSASVGDRVTITCRASEDIYSNLAWYQQKPGKSPQLLIYDANILADGVPSRFSGSGSGTDYTLTISSLQPEDFATYYCQQYNNYPPFTFGQGTKVEIKR
12 |  | 3.4 nM |  | humanized anti-FGFR2 antibody hFR2-14_H15/L1 (antibody, V domains shown) VH: QVQLVQSGAEVKKPGASVKVSCKASGFTFSTSYMSWVRQAPGPSTEWMGWIYAGDGGTKYNQKFKGRVTLTVDKSTSTAYMELSSLRSEDTAVYYCATDRYGDWFTYWGQGTLVTVSS VL: DIQMTQSPSSLSASVGDRVTITCRASEDIYSNLAWYQQKPGKSPQLLIYDANILADGVPSRFSGSGSGTDYTLTISSLQPEDFATYYCQQYNNYPPFTFGQGTKVEIKR
13 |  | 0.51 nM |  | humanized anti-FGFR2 antibody hFR2-14_H9/L1 (antibody, V domains shown) VH: QVQLVQSGAEVKKPGASVKVSCKASGFTFSTSYMSWVRQAPGPSTEWMGWIYAGDGGTKYNQKFKGRVTLTVDKSTSTAYMELSSLRSEDTAVYYCATDHYGDWFTYWGQGTLVTVSS VL: DIQMTQSPSSLSASVGDRVTITCRASEDIYSNLAWYQQKPGKSPQLLIYDANILADGVPSRFSGSGSGTDYTLTISSLQPEDFATYYCQQYNNYPPFTFGQGTKVEIKR
14 |  | 2.3 nM |  | humanized anti-FGFR2 antibody hFR2-14_H14/L1 (antibody, V domains shown) VH: QVQLVQSGAEVKKPGASVKVSCKASGFTFSTSYMSWVRQAPGPSTEWMGWIYAGDGGTKYNQKFKGRVTLTVDKSTSTAYMELSSLRSEDTAVYYCATDQYGDWFTYWGQGTLVTVSS VL: DIQMTQSPSSLSASVGDRVTITCRASEDIYSNLAWYQQKPGKSPQLLIYDANILADGVPSRFSGSGSGTDYTLTISSLQPEDFATYYCQQYNNYPPFTFGQGTKVEIKR
15 |  | 0.95 nM |  | humanized anti-FGFR2 antibody hFR2-14_H5/L1 (antibody, V domains shown) VH: QVQLVQSGAEVKKPGASVKVSCKASGFTFSTSYMSWVRQAPGPSTEWMGWIYAGDGGTKYNQKFKGRVTLTVDKSTSTAYMELSSLRSEDTAVYYCATEGYGDWFTYWGQGTLVTVSS VL: DIQMTQSPSSLSASVGDRVTITCRASEDIYSNLAWYQQKPGKSPQLLIYDANILADGVPSRFSGSGSGTDYTLTISSLQPEDFATYYCQQYNNYPPFTFGQGTKVEIKR
16 |  | 1.5 nM |  | humanized anti-FGFR2 antibody hFR2-14_H6/L1 (antibody, V domains shown) VH: QVQLVQSGAEVKKPGASVKVSCKASGFTFSTSYMSWVRQAPGPSTEWMGWIYAGDGGTKYNQKFKGRVTLTVDKSTSTAYMELSSLRSEDTAVYYCATDAYGDWFTYWGQGTLVTVSS VL: DIQMTQSPSSLSASVGDRVTITCRASEDIYSNLAWYQQKPGKSPQLLIYDANILADGVPSRFSGSGSGTDYTLTISSLQPEDFATYYCQQYNNYPPFTFGQGTKVEIKR
